Reference: article PMC9654404, “Functional Characterization and Screening of Promiscuous Kinases and Isopentenyl Phosphate Kinases for the Synthesis of DMAPP via a One-Pot Enzymatic Cascade” (International Journal of Molecular Sciences, 2022)

Tests used:
purified protein [1] = substrate: CC(C)=CCOP(=O)(O)O; assay: purified protein; conditions: ATP co-substrate, 2 mM MgCl2, 50 mM buffer, DMAP made enzymatically with SfPK, apparent Km
[2] = substrate: CC(C)=CCO; assay: ADP formation, ADP colorimetric/fluorometric assay kit, Michaelis-Menten fit; assay type: biochemical, Shigella flexneri; conditions: ATP co-substrate, 2 mM MgCl2, 50 mM buffer, optimal conditions (optimum pH 9.0, 55 °C), apparent Km
[3] = substrate: CC(C)=CCO; assay: as above; assay type: biochemical, Escherichia coli; conditions: ATP co-substrate, 2 mM MgCl2, 50 mM buffer, optimal conditions (optimum pH 5.5, 50 °C), apparent Km
purified protein [4] = substrate: CC(C)=CCO; assay: purified protein; conditions: ATP co-substrate, 2 mM MgCl2, 50 mM buffer, optimal conditions (optimum pH 7.5, 30 °C), apparent Km, 30.0 °C

B1: MthIPK (Methanothermobacter thermautotrophicus isopentenyl phosphate kinase) (Methanothermobacter thermautotrophicus str. Delta H) (protein)
chain: MIILKLGGSVITRKDSEEPAIDRDNLERIASEIGNASPSSLMIVHGAGSFGHPFAGEYRIGSEIENEEDLRRRRFGFALTQNWVKKLNSHVCDALLAEGIPAVSMQPSAFIRAHAGRISHADISLIRSYLEEGMVPVVYGDVVLDSDRRLKFSVISGDQLINHFSLRLMPERVILGTDVDGVYTRNPKKHPDARLLDVIGSLDDLESLDGTLNTDVTGGMVGKIRELLLLAEKGVESEIINAAVPGNIERALLGEEVRGTRITGKH
Work on B1 yielded a Km (purified protein [1]; optimal conditions (optimum pH 7.5, 30 °C), 30.0 °C) of 116 µM.

B2: MtIPK (Methanolobus tindarius isopentenyl phosphate kinase) (Methanolobus tindarius DSM 2278) (protein)
chain: MDNNNITILKIGGSVITDKSADDGTARLSEIERIAAEISGFEGKLIIVHGAGSFGHPQVKRFGLTGKFDHEGSIITHMSVRKLNTMVVETLNSAGINALPVHPMACAISSNSRIKSMFREQIEEMLANGFVPVLHGDMVMDTDLGTSVLSGDQIVPYLAIQMKASRIGIGSAEEGVLDDKGGVIPLINNENFDEIKAYLSGSANTDVTGGMLGKVLELLELSEQSNSTSYIFNAGNTGNISDFLSGKNIGTAIGAGTI
B2 gave a Km (purified protein [1]; optimal conditions (optimum pH 7.5, 35 °C), 35.0 °C) of 65 µM.

B3: SfPK (Shigella flexneri promiscuous kinase) (Shigella flexneri) (protein)
chain: SIPPGNDVTTKPDLYYLTNDNAIDSLALLPPPPQIGSIAFLNDQAMYEKGRLLRNTERGKLAAEDANLSSGGVANVFSAAFGSPITAKDSPELHKLLTNMIEDAGDLATRSAKEYYMRIRPFAFYGVSTCNTKEQDTLSRNGSYPSGHTSIGWATALVLSEINPARQDTILKRGYELGDSRVICGYHWQSDVDAARIVGSAIVATLHSNPVFQAQLQKAKDEFANNQKK
With B3 the Km [2] was 16 µM.

B4: EcPK (Escherichia coli promiscuous kinase) (Escherichia coli K-12) (protein)
chain: MQVDLLGSAQSAHALHLFHQHSPLVHCMTNDVVQTFTANTLLALGASPAMVIETEEASQFAAIASALLINVGTLTQPRAQAMRAAVEQAKSSQTPWTLDPVAVGALDYRRHFCHELLSFKPAAIRGNASEIMALAGIANGGRGVDTTDAAANAIPAAQTLARETGAIVVVTGEMDYVTDGHRIIGIHGGDPLMTKVVGTGCALSAVVAACCALPGDTLENVASACHWMKQAGERAVARSEGPGSFVPHFLDALWQLTQEVQA
In the case of B4, the Km [3] is reported as 930 µM.

B5: ScPK (Saccharomyces cerevisiae promiscuous kinase) (Saccharomyces cerevisiae S288C) (protein)
chain: MVQESRPGSVRSYSVGYQARSRSSSQRRHSLTRQRSSQRLIRTISIESDVSNITDDDDLRAVNEGVAGVQLDVSETANKGPRRASATDVTDSLGSTSSEYIEIPFVKETLDASLPSDYLKQDILNLIQSLKISKWYNNKKIQPVAQDMNLVKISGAMTNAIFKVEYPKLPSLLLRIYGPNIDNIIDREYELQILARLSLKNIGPSLYGCFVNGRFEQFLENSKTLTKDDIRNWKNSQRIARRMKELHVGVPLLSSERKNGSACWQKINQWLRTIEKVDQWVGDPKNIENSLLCENWSKFMDIVDRYHKWLISQEQGIEQVNKNLIFCHNDAQYGNLLFTAPVMNTPSLYTAPSSTSLTSQSSSLFPSSSNVIVDDIINPPKQEQSQDSKLVVIDFEYAGANPAAYDLANHLSEWMYDYNNAKAPHQCHADRYPDKEQVLNFLYSYVSHLRGGAKEPIDEEVQRLYKSIIQWRPTVQLFWSLWAILQSGKLEKKEASTAITREEIGPNGKKYIIKTEPESPEEDFVENDDEPEAGVSIDTFDYMAYGRDKIAVFWGDLIGLGIITEEECKNFSSFKFLDTSYL
For B5, the Km (purified protein [4]) was 1250 µM.
